Data from PMC8789800.
Read-outs that look alike come from different tables or passages of the source.

Legend:
MBP-NTK_RSK2 = type: binding, Human; conditions: GST-fusion preys, 10–20 µM; Coomassie gel; N = 1; ORF45 = GST-ORF45(16-76)
activated RSK2 [1] = type: biochemical, Human; conditions: 10 µM GST-fusion substrate, 0.5 µM activated RSK2, no competitor
activated RSK2 [2] = test: In vitro kinase assay of EIF4B RxxS/T phosphorylation reporters with activated RSK2, Anti-RxxpS/pT Western-blot; conditions: 10 µM GST-fusion construct, 100 nM activated RSK2; mean ± SD, N = 3
[3] = test system: RSK2 and ERK2-RSK2 complex; test: Size-exclusion chromatography with fluorescently labeled ORF45(16-76); type: binding; conditions: peptide labeled with a fluorescent dye
ppERK2 → RSK2 = test: In vitro kinase assay, 10 nM ppERK2 phosphorylating 2 µM RSK2, phosphorimaging; type: biochemical, Human; conditions: 50 µM ORF45 peptide; tested on ppERK2 → RSK2 and MKK1 → ERK2 → RSK2
Experimental: (§1) Phosphorimaging results are plotted on the panel at the right based on one experiment (N = 1). b In vitro kinase assay results on RSK substrate phosphorylation. […] The schematic panel on the right highlights the hierarchical phosphorylation events (one-end arrows) and the PPIs (two-end arrows) required for NTK mediated phosphorylation of RSK substrates.
Radioactivity based kinase reactions were carried out in 50 mM HEPES, pH 7.5, 100 mM NaCl, 5 mM MgCl2, 0.05% IGEPAL, 5% glycerol, 2 mM DTT using recombinant expressed and purified proteins in the presence of 250 μM ATP and ∼5 μCi of [γ-^32P]ATP. Reactions were stopped with protein loading sample buffer complemented with 20 mM EDTA, boiled, and then subjected to SDS-PAGE. Gels were dried before phosphorimaging by a Typhoon Trio+ scanner (GE Healthcare).

MKP3 = test: ppERK2 dephosphorylation by MKP3, quantitative Western-blot; type: biochemical, human; conditions: 1 μM ppERK2, 1 μM MKP3; 1 μM RSK2; 1 or 5 μM ORF45(16-76)
Source text: as §1
Sequences of oligonucleotides used for cloning are listed in Supplementary Table 4.

[4] = molecular target: double-phosphorylated ERK2 (ppERK2) (human) (UniProt P28482); test: fluorescence polarisation
activated RSK2 [5] = test: In vitro kinase assay of RHDF1(1-289) wild type and F281A with activated RSK2, Anti-RxxpS/pT Western-blot

double-phosphorylated ERK2 (ppERK2) (human), sequence (P28482 whole entry): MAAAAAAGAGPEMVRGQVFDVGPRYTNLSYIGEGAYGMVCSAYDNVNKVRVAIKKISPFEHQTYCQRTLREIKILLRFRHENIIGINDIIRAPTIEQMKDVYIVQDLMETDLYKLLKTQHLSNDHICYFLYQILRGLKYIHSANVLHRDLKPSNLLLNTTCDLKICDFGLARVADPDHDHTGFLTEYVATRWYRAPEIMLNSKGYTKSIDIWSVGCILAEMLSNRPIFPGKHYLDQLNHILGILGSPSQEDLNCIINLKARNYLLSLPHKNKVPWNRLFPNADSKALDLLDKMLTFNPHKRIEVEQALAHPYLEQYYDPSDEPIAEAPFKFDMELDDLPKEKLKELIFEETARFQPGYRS

With “ORF45(16-76)-F66A: VF-motif mutated version of GST-ORF45(16-76)” the “binding in MBP pull-down, RSK2 NTK” value (MBP-NTK_RSK2) was “did not show detectable binding”.

In the case of “411-ETQERERSRTGSESSQTGTS-430 [RxxSEIF4B]”, the initial phosphorylation rate (activated RSK2 [1]; Sample_1) is reported as 0.3562, the initial phosphorylation rate (activated RSK2 [1]; Sample_2) is reported as 0.455 and the initial phosphorylation rate (activated RSK2 [1]; Sample_3) is reported as 0.379. The initial phosphorylation rate (activated RSK2 [1]; mean N=3) was 0.3967 and the RxxSEIF4B phosph. rate (activated RSK2 [2]) was 0.03 ± 0.01 arb. unit / min.

“ORF45(16-76): 61 amino acid long N-terminal ORF45 peptide, expressed as GST-fusion and cleaved; GST-fusion in Fig. 7 and 8” was tested, and the “binding in size-exclusion chromatography” value [3] was “binds to RSK2 as well as to the ERK2-RSK2 complex” and the “effect on RSK2 phosphorylation in vitro” value (ppERK2 → RSK2) was “blocked RSK2 phosphorylation”.

In the case of “RSK2: purified human RSK2 added to the ppERK2 dephosphorylation assay”, the “protection of ppERK2 from dephosphorylation by MKP3” value (MKP3) is reported as “did not protect ppERK2 from dephosphorylation”.

With unlabeled ORF45(16-40) peptide the Kd [4] was 800 nM.

B1: RHDF: human RHDF1 construct 1-289, wild type (protein, UniProt Q96CC6 1-289, looked up, fragment)
chain: MSEARRDSTSSLQRKKPPWLKLDIPSAVPLTAEEPSFLQPLRRQAFLRSVSMPAETAHISSPHHELRRPVLQRQTSITQTIRRGTADWFGVSKDSDSTQKWQRKSIRHCSQRYGKLKPQVLRELDLPSQDNVSLTSTETPPPLYVGPCQLGMQKIIDPLARGRAFRVADDTAEGLSAPHTPVTPGAASLCSFSSSRSGFHRLPRRRKRESVAKMSFRAAAALMKGRSVRDGTFRRAQRRSFTPASFLEEDTTDFPDELDTSFFAREGILHEELSTYPDEVFESPSEAAL
B1 showed an initial phosphorylation rate (activated RSK2 [1]; Sample_1) of 0.1656, an initial phosphorylation rate (activated RSK2 [1]; Sample_2) of 0.1405 and an initial phosphorylation rate (activated RSK2 [1]; Sample_3) of 0.1427. For the same molecule, the initial phosphorylation rate (activated RSK2 [1]; mean N=3) was 0.1496, the “RxxS motif phosphorylation, Normalized to RHDF_Mean” value (activated RSK2 [5]; Sample_1) was 1.075 and the “RxxS motif phosphorylation, Normalized to RHDF_Mean” value (activated RSK2 [5]; Sample_2) was 0.9889. The “RxxS motif phosphorylation, Normalized to RHDF_Mean” value (activated RSK2 [5]; Sample_3) was 0.9363 and the “RxxS motif phosphorylation, Normalized to RHDF_Mean” value (activated RSK2 [5]; mean N=3) was 1.

B2: RHDF_F281A: RHDF1_1-289 with the VF motif mutated (F281A) (protein, UniProt Q96CC6 1-289, looked up, variant F281A)
chain: MSEARRDSTSSLQRKKPPWLKLDIPSAVPLTAEEPSFLQPLRRQAFLRSVSMPAETAHISSPHHELRRPVLQRQTSITQTIRRGTADWFGVSKDSDSTQKWQRKSIRHCSQRYGKLKPQVLRELDLPSQDNVSLTSTETPPPLYVGPCQLGMQKIIDPLARGRAFRVADDTAEGLSAPHTPVTPGAASLCSFSSSRSGFHRLPRRRKRESVAKMSFRAAAALMKGRSVRDGTFRRAQRRSFTPASFLEEDTTDFPDELDTSFFAREGILHEELSTYPDEVAESPSEAAL
B2 was tested, and the “RxxS motif phosphorylation, Normalized to RHDF_Mean” value (activated RSK2 [5]; Sample_1) was 0.1221, the “RxxS motif phosphorylation, Normalized to RHDF_Mean” value (activated RSK2 [5]; Sample_2) was 0.1251 and the “RxxS motif phosphorylation, Normalized to RHDF_Mean” value (activated RSK2 [5]; Sample_3) was 0.1185. The “RxxS motif phosphorylation, Normalized to RHDF_Mean” value (activated RSK2 [5]; mean N=3) was 0.1219.

B3: SOS1: human SOS1 construct 1101-1170 (legend also 1101-1171) (protein, UniProt Q07889 1101-1170, looked up, fragment)
chain: VCSVFDSDHSSPFHSSNDTVFIQVTLPHGPRSASVSSISLTKGTDEVPVPPPVPPRRRPESAPAESSPSK
B3 gave an initial phosphorylation rate (activated RSK2 [1]; Sample_1) of 1.226, an initial phosphorylation rate (activated RSK2 [1]; Sample_2) of 1.21 and an initial phosphorylation rate (activated RSK2 [1]; Sample_3) of 0.88. It also gave an initial phosphorylation rate (activated RSK2 [1]; mean N=3) of 1.105.
